Values quoted from earlier work in article PMC2996873.

Molecular target: RANTES (Homo sapiens) (UniProt P13501)
UniProt P13501, sequence (P13501 27-91): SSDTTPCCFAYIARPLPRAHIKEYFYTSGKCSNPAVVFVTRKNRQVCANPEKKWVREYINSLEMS

Kd: 460 nM
Substance: CCR1 (from UniProt P32246)
